Test results taken from the supplement of paper PMC7877785.
± gives the uncertainty stated by the source.

Experiment: self-splicing fitness, log relative to wild type (ln ratio); higher = more splicing; Tetrahymena group I intron in knt gene, E. coli kanamycin selection, DiMSum; sequences stand for … in CUCUCU…GGAGGGAAAAGUUAUCAGGCAUGCACCUGGUAGCUAGUCUUUAAACCAAUAGAUUGCAUCGGUUUAAAAGGCAAGACCGUCAAAUUGCGGGAAAGGGGUCAACAGCCGUUCAGUACCAAGUCUCAGGGGAAACUUUGAGAUGGCCUUGCAAAGGGUAUGGUAAUAAGCUGACGGACAUGGUCCUAACCACGCAGCCAAGUCCUAAGUCAACAGAUCUUCUGUUGAUAUGGAUGCAGUUCACAGACUAAAUGUCGGUCGGGGAAGAUGUAUUCUUCUCAUAAGAUAUAGUCGGACCUCUCCUUAAUGGGAGCUAGCGGAUGAAGUGAUGCAACACUGGAGCCGCUGGGAACUAAUUUGUAUGCGAAAGUAUAUUGAUUAGUUUUGGAGUACUCGUGGUCG
How it was run: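 Six replicate transformations of E. coli BL21(DE3) with a pET-22b(+) library were grown overnight at 37°C or 30°C. The library randomised all eight P1ex-region intron nucleotides, the intron lying in the knt kanamycin-resistance gene, and plates were LB agar with or without 25 μg/mL kanamycin plus 100 μg/mL carbenicillin, 50 μM IPTG and 0.2% rhamnose. Pooled colonies were amplicon-sequenced on an Illumina HiSeq 2500, and fitness is the DiMSum error-weighted combination of wild-type-normalised replicate fold changes, kanamycin versus none.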

| Sequence | self-splicing fitness (ln) (30 °C) | self-splicing fitness (ln) (37 °C) |
| --- | --- | --- |
| GUAUAGCAAUAUUACGACUC | -0.23 ± 0.14 | 0.0743 ± 0.23 |
| GUGAAGCAAUAUUACGAUGU | -0.316 ± 0.064 | -0.0235 ± 0.094 |
| CUGUAGCAAUAUUACGCGUU | -4.19 ± 0.3 | -2.26 ± 0.18 |
| UACGAGCAAUAUUACGGAUA | -2.3 ± 0.17 | -1.43 ± 0.12 |
| GAGCAGCAAUAUUACGAGUA | -2.42 ± 0.34 | -1.92 ± 0.26 |
| GGUAAGCAAUAUUACGUGCG | -1.12 ± 0.12 | -0.227 ± 0.12 |
| GGUCAGCAAUAUUACGUGUA | -0.892 ± 0.071 | -0.855 ± 0.082 |
| UCGUAGCAAUAUUACGAUGU | -3.41 ± 0.24 | -2.24 ± 0.2 |
| CAGAAGCAAUAUUACGUCUU | -1.7 ± 0.089 | -0.306 ± 0.11 |
| AUACAGCAAUAUUACGGUUU | -0.703 ± 0.048 | 0.226 ± 0.059 |
| GUCGAGCAAUAUUACGAUGA | -1.6 ± 0.15 | -0.827 ± 0.14 |
| CGGUAGCAAUAUUACGCCCC | -1.29 ± 0.24 | -0.667 ± 0.29 |
| CUCGAGCAAUAUUACGCGGU | -4.23 ± 0.46 | -1.97 ± 0.27 |
| CGAAAGCAAUAUUACGUGUA | -3 ± 0.13 | -2.35 ± 0.13 |
| CUAGAGCAAUAUUACGCUGU | -3.92 ± 0.37 | -2.69 ± 0.36 |
| UGUCAGCAAUAUUACGUACA | -0.576 ± 0.11 | -0.0735 ± 0.13 |
| UCUUAGCAAUAUUACGUAAG | -0.27 ± 0.09 | -0.314 ± 0.13 |
| ACUAAGCAAUAUUACGUAGC | -2.96 ± 0.16 | -1.25 ± 0.13 |
| UGUGAGCAAUAUUACGUUAC | -3.75 ± 0.37 | -2.6 ± 0.38 |
| AAUUAGCAAUAUUACGUUUG | -3.16 ± 0.22 | -2.9 ± 0.27 |
| CGACAGCAAUAUUACGCCGA | -2.36 ± 0.11 | -0.991 ± 0.094 |
| GAAGAGCAAUAUUACGGCGU | -1.48 ± 0.1 | -0.224 ± 0.12 |
| CGCGAGCAAUAUUACGGGUU | -3.62 ± 0.2 | -2.44 ± 0.2 |
| AUAGAGCAAUAUUACGGUGG | -1.24 ± 0.26 |  |
| GUUCAGCAAUAUUACGACAU | -0.0137 ± 0.013 | 0.437 ± 0.033 |
| CUUGAGCAAUAUUACGGGCU |  | -1.91 ± 0.25 |

| Sequence | self-splicing fitness (ln) (30 °C) | self-splicing fitness (ln) (37 °C) |
| --- | --- | --- |
| ACCGAGCAAUAUUACGGCUG | -1.28 ± 0.073 | -1.24 ± 0.1 |
| UACCAGCAAUAUUACGGUGA | -0.536 ± 0.057 | 0.0523 ± 0.075 |
| CGGAAGCAAUAUUACGCGUU | -3.9 ± 0.34 | -2.9 ± 0.33 |
| UACAAGCAAUAUUACGCAUG | -2.07 ± 0.088 | -0.74 ± 0.086 |
| ACGGAGCAAUAUUACGGUUU | -3.1 ± 0.15 | -3.31 ± 0.28 |
| GGCUAGCAAUAUUACGGGGU | -2.25 ± 0.1 | -1.29 ± 0.11 |
| CAAUAGCAAUAUUACGAUCC | -2.68 ± 0.46 |  |
| GUGAAGCAAUAUUACGAUCA | -0.337 ± 0.11 | 0.465 ± 0.13 |
| UCACAGCAAUAUUACGCCAU | -3.28 ± 0.19 | -2.22 ± 0.18 |
| UAACAGCAAUAUUACGAGCG | -0.617 ± 0.055 | 0.286 ± 0.069 |
| CUUGAGCAAUAUUACGUAUU |  | -3.02 ± 0.37 |
| UGAUAGCAAUAUUACGCUUU | -3.56 ± 0.47 | -1.39 ± 0.15 |
| GAAUAGCAAUAUUACGCGUA | -2.17 ± 0.16 | -0.973 ± 0.13 |
| UAGCAGCAAUAUUACGAGAA | -2.19 ± 0.23 | -0.949 ± 0.18 |
| GAGUAGCAAUAUUACGUUUA | -3.09 ± 0.25 | -1.63 ± 0.19 |
| GCAAAGCAAUAUUACGUAGC | -4.47 ± 0.46 | -1.71 ± 0.22 |
| GGCUAGCAAUAUUACGAGAC | -3.62 ± 0.44 |  |
| GUGCAGCAAUAUUACGACUC | -0.543 ± 0.13 | 0.542 ± 0.19 |
| GUACAGCAAUAUUACGCGAG | -1.73 ± 0.094 | -1.85 ± 0.12 |
| AACUAGCAAUAUUACGCGAG | -1.82 ± 0.11 | -0.501 ± 0.12 |
| CCCUAGCAAUAUUACGGGGA | -3.28 ± 0.23 | -2.41 ± 0.2 |
| UGAAAGCAAUAUUACGACUG | 0.192 ± 0.1 | 0.249 ± 0.12 |
| GAUAAGCAAUAUUACGUAGU | -2.09 ± 0.083 | -0.957 ± 0.091 |
| ACACAGCAAUAUUACGAAUC | -3.22 ± 0.15 | -2.63 ± 0.21 |
| UAGCAGCAAUAUUACGGAUC | -3.34 ± 0.21 | -1.4 ± 0.2 |
| CAGCAGCAAUAUUACGUACU | -2.54 ± 0.24 | -2.5 ± 0.32 |

| Sequence | self-splicing fitness (ln) (30 °C) | self-splicing fitness (ln) (37 °C) |
| --- | --- | --- |
| UAGGAGCAAUAUUACGGAUU | -3.92 ± 0.25 | -2.98 ± 0.38 |
| CCAUAGCAAUAUUACGCCUG | -1.08 ± 0.084 | 0.137 ± 0.099 |
| UGGAAGCAAUAUUACGAUUU | -2.48 ± 0.087 | -1.7 ± 0.092 |
| GUUGAGCAAUAUUACGUGCG | -3.02 ± 0.21 | -2.07 ± 0.25 |
| UUGUAGCAAUAUUACGCUCU | -1.21 ± 0.2 | -1.29 ± 0.15 |
| GGAAAGCAAUAUUACGCGGU | -3.32 ± 0.13 | -3.21 ± 0.2 |
| UGCAAGCAAUAUUACGGCUC | -1.8 ± 0.11 | -1.01 ± 0.15 |
| ACCGAGCAAUAUUACGGAAG | -4.18 ± 0.34 | -1.93 ± 0.43 |
| CGCCAGCAAUAUUACGCUGC | -4.16 ± 0.41 | -2.24 ± 0.28 |
| GCCCAGCAAUAUUACGCAUC | -0.67 ± 0.075 | -0.106 ± 0.092 |
| GCGGAGCAAUAUUACGACCU | -0.927 ± 0.2 | -1.02 ± 0.19 |
| CACCAGCAAUAUUACGAGCC | -3.37 ± 0.27 | -2.92 ± 0.32 |
| AUGAAGCAAUAUUACGUCUA | 0.344 ± 0.094 | 0.623 ± 0.11 |
| UACAAGCAAUAUUACGGUGC | -3.55 ± 0.26 | -2.35 ± 0.21 |
| UCGCAGCAAUAUUACGGGCA | -1.41 ± 0.4 | -0.479 ± 0.23 |
| UAAGAGCAAUAUUACGUGAU | -4.21 ± 0.34 | -2.43 ± 0.35 |
| CGGCAGCAAUAUUACGAUAC | -3.21 ± 0.26 | -2.89 ± 0.31 |
| UCGGAGCAAUAUUACGAGUC |  | -0.017 ± 0.39 |
| CGUUAGCAAUAUUACGCCAU |  | -1.61 ± 0.2 |
| AGGUAGCAAUAUUACGCUAC | -3.78 ± 0.047 | -2.71 ± 0.059 |
| GAACAGCAAUAUUACGCCAG | -3.71 ± 0.15 | -3.05 ± 0.27 |
| UUUAAGCAAUAUUACGAGUG | -1.38 ± 0.14 | -0.204 ± 0.13 |
| GGAAAGCAAUAUUACGGGCG | -0.494 ± 0.079 | -0.213 ± 0.11 |
| GAACAGCAAUAUUACGCACC | -0.638 ± 0.096 | 0.0849 ± 0.097 |
| UCGUAGCAAUAUUACGCGGU | -2.32 ± 0.15 | -1.6 ± 0.18 |
